assay: soluble on expression in E. coli; label from the status in PepcDB or PDB records

Row | Sequence | soluble on expression in E. coli
1 | SAASAALILPESPSMKKAVPLINAIDTGRFPRLLSRILQKLHLKAESSFSEEEEEKLQAAFSLEKQELHLVLETISFVLEQAVYHNVKPAALQQQLEMIHLRKDKAEAFASAWSAMGQETVEKFRQRILGPHKLETVGWQLNLQMAHSAQAKLQSPQAVLQLGVSKEDAKNVEKVLVEFNHKELFDFYNKLETIQAQLDSLT | soluble
2 | VTAEIRLYITEGEVEDYRVFLERLEQSGLEWRPATPEDADAVIVLAGLWGTRRDEILGAVDLARKSSKPIITVRPYGLENVPPELEAVSSEVVGWNPHCIRDALEDALDVI | soluble
3 | WVFFVEDGETIRVRLRSKGPVINTVAMEHNGGGHPMAAGAKAKSWEETDKIV | soluble
4 | MAYDIERYLDIRGAGDPTYGPTGELAFTLGTTGTAQVWALGAPGAWPTQLTFHDERVQWASFSPTREELAYGMDTGGDEFTQLHRVSGDGSEDVQLTAFPDAKHDWGGWSHDGDRIAYTANRRDASRFDVYVQGRDEAGANADCVRVGDTFDLPSVVGWSPSDDRLLVVDTHSNFDQDVAVLDVDTGEITRATAGLDADTRFSWVAWAPDGGGVYVTTDHDADTRYLGLLDPETGAISRVADGGDWPIEAVVTAHDAGRLAYVRNRDGYSELTIADAAGTTLTEQPTPELPDGVIRGLSWGPDGDTLAVVVSAATENPNVFVVDVATGAATQWTNAATAGIPKSTFREPELVRYETFDGREIPALFTRPDGDGPHPVIVDFHGGPEGQRRPSFLSLRQYFVDNGYAVFEPNVRGSSGYGATYMNLDNVRNRMDAVADGKAGVEWLTARTDIDADRVVAYGGSYGGFMVLASLTEYPELWAAGVDIVGIANFVTFLENTGDWRREHRESEYGSLDADREFLESISPTNNADRIRAPLLVLHGANDPRVPVGEAERIVEQASAHVPVEKHVFDDEGHGFSKRANKQAAYRAVVDFLDDHALEHHHHHH | not soluble
5 | MGSDKIHHHHHHMIFQLKGKFQHYPWGGRYFIPHFLKLTEVVDQPYAEYWLGAHPAASATIKFGEQWLPLADVIKQAPELLGERSRQQFGDNLPYLLKILDIKQPLSIQLHPNKAQAEYGFNQENRQGIPLEDVRRIYKDRNHKPEMMIALSDFWLLHGFKSITAIQACLAKYPSTSALAKSLVEKSLAVVYAEIMHADQTQLASWLRPIIEQRRADYLADKLKLSDPDYWLLYMTDDLAADAPLDAGLMCFYLFNIVHLKKGEGIYQAANLPHAYLRGQSIELMANSDNVIRGGLTTKWVDIPALLQAVDYRPVRPQIIAAYRDDKTVDQNFYLYPTPQAKDFALQRLTIRQLVENRFVTDSASMLLVMKGSLYIDLGNTSFHLNQGDAVFISADSHVELIGENDGYAIIASLP | not soluble
6 | MGSDKIHHHHHHMLDIKYYVLIDAIATHGTVHDAAAAIGITQPAATHRIREMERRLGVALFHREGRRLTLSASGERLLDTAHAVLPQLRNAELEAWQLARRAEPALRLGIGPYDTFSRAIPHLYDQHERDIDLVRLPMADMTTALLANRVDMICMIEVPSQRGIAHQLLFEEPLVAVLPPDHPDAQSDTIPAEVFDRGRHFTYSITPESGHEFEHFFQPAGVYPSHMVQIESVALILELVAAGKGVSILSRWAARDAHQAGHVVMRPLAGDIPRIPWYLAYTQTPHIAAVAEPLADTLRHLYRADE | not soluble
7 | MAHHHHHHMWNLNRLYRQNELSMHGVRNNHDIIVVRQVNISDKNNPDNYLHNQNNTNTSIKQNPQSVILNEKELLNLVQNFNHINRKHKGFCETSIFKNSTFSNTNNEHNGEDSFNTYLIIDKWKTKREFEKSKKEFEKLFAHKNHLYDKKMEDIYLNYEMYNNNYETVSAQNIFQKLYYFIFD | not soluble
8 | MPRKQRVVTTPSPPTSDEDEDMDFGSTSQQQQQQPTRNNDGLSGFKSITEIIAEADNNIPSEQIDKDIDSFSSYSDISDWRGIPKFFPSLSSLSRRASTYENWENRFKVVDYLVSCSGALKDSVSDYVADYFEKNESGEDHSVDVELVHAVSMFVILTQRLTVQLQLYVSKSIASANQQAKRGTGRGGRQVDLDDDIVKWKDIQRHRMINCLLELLELRVDTVAGTKKKAIQYVFAPDVMEKDFLLRFLDTVVQLLEDPENMARSSQQWISHYFRILKVLSADYGMTKDVANCLFTALSHSYLEAANTFPFIEPLVTLMKENGEGSGRIYQPLRNVLQLVICRVGNLYAGERAEKPPPKAFCMMVQSLAINVHDLMLQDITHVYRLLQNQHVNVRMSTLHALADMFSSSYLSQSLCDTFASRRLKREGIFKRLLAHTNDEATNVRSKAVSLLRNIMENRRIPEEFESCGLLSIVGSRLNDKSVQVRKSAIQFLTTFLDNNRHGHDFNREMHQLKLNAKCSELRNAEEPQSKAIQGAENAFRQNLFTLTAGVRVEVYDIFRRRYRVEPERSITDILTGLFSPGSGNRLVRYYVAQENFPFRDRIPSLRERRSDDMEDDDDDTVSLEDDDMTSLVSEVVKWVVAQAEEDYVTFKVQLTQMDDDQLLENEQEARDRNNQIMQLRAQVQQLINKMSIEQELSRCVTIALRCVLNGETAEIKEGIRFLTRCKLFEITGADDAIRSMCSLVWRPSADILNELIEAAEDMFISRLDGNEKASERDSSTVENLMKAMNGVTEKDRPSVEEVIYLLAATELVHVDSDKNKVPRKRRPIEANVINKLWMIALDMSHGINSRKIDALRILYPISRSERGIAEARSRLRVVQKKLMDPELAVDALRIISILGTPTKLENEQDAYSRPLFKIHQDDSLWKSIEKLFFYEIMKADDNPDRDWFGVIRLTITTILSLSMDVNVMLPKLASHFVYRTKRISDFFLFYCDQVDDATDDTRKKMAQRRREYWALTYCRVMEKLMAFIGEVAVQLNAYIQVTIPKLHTRYVSKMVDAEKNDANIREEPVRFLSDLEKSVAQRKTIFTVPQDTTPGATSNDLHHLVSVMCDKRLFVPNKLMGRLLPIVVYGMRCKIMPTRIRHAATVAYGKMMPLSAEISAFAAPSFFSAMTKSSSILLRCNLVAACCDFAFAQPTLFELFAQSLFRMSQDESPLARESTILVLSHLMSNDMIQTRGVLSEAARCICDPTRAVRDVAQSFFKELNSRTDTIIQLLPEFLYHLSNGNERMSFKSYKTVFEFLIQLLKDKPKASADSMIDRVCIKFSNTDMNDSETPKYLLVALAKFVQNDGGLHRLQDNWRHWSKFMCHPSVAKEYRMMVEHMHSTSKNDEFKSQCVELIDNINKIESEGLRKEDVAIGSSITKNKGRAKKNPTTMSGSSRTTSRAANSRRRAPPPAQSDEDDSDSDDAPAAPRSAARRKAKKSAVADDDSDSDEFMLDD | not soluble
9 | MASSSSTLPLHMYIRPLIIEDLKQILNLESQGFPPNERASEEIISFRLINCPELCSGLFIREIEGKEVKKETLIGHIMGTKIPHEYITIESMGKLQVESSNHIGIHSVVIKPEYQKKNLATLLLTDYIQKLSNQEIGNKIVLIAHEPLIPFYERVGFKIIAENTNVAKDKNFAEQKWIDMERELIKEEYDN | soluble
10 | MIIREATVQDYEEVARLHTQVHEAHVKERGDIFRSNEPTLNPSFFQAAVQGEKSTVLVFVDEREKIGAYSVIHLVQTPLLPTMQQRKTVYISDLCVDETRRGGGIGRLIFEAIISYGKAHQVDAIELDVYDFNDRAKAFYHSLGMRCQKQTMELPLLEHHHHHH | soluble
11 | MSDSGRADALLAQLPREGRGRLKVFLGAAPGVGKTYAMLQAAHAQLRQGVRVMAGVVETHGRAETEALLNGLPQQPLLRTEYRGMTLEEMDLDALLKAAPSLVLVDELAHTNAPGSRHTKRWQDIQELLAAGIDVYTTVNVQHLESLNDQVRGITGVQVRETLPDWVLQEAFDLVLIDLPPRELLERLRDGKVYVPEQARAAIDAFFTQTNLTALREMAMQTAAAQV | not soluble
12 | MQNRLRSALALVTGAGSGIGRAVSVRLAGEGATVAACDLDRAAAQETVRLLGGPGSKEGPPRGNHAAFQADVSEARAARCLLEQVQACFSRPPSVVVSCAGITQDEFLLHMSEDDWDKVIAVNLKGTFLVTQAAAQALVSNGCRGSIINISSIVGKVGNVGQTNYAASKAGVIGLTQTAARELGRHGIRCNSVLPGFIATPMTQKVPQKVVDKITEMIPMGHLGDPEDVADVVAFLASEDSGYITGTSVEVTGGLFMAENLYFQ | soluble
13 | PSLALYVDASGKIKYINEYFLEICRFKSADEATGRSPSELLDTSSRRTLAEKVMETGEGIYNVEKSIKFKALDKPLFTVLSAVPVKDETGTIAGSLMVITDMT | not soluble
14 | MITQRQNAILNLIVEMFTRTHEPVCSKALQDSIDSSSATIRNDMAKLEKMGYLEKAHISSGRMPSRAGFQYFVANSLNLDTIDEQDVYQVVKAFDFEAFKLEDILDAAAKLLAEMTGCTAVIQDVEPTKQRLTGFEIVQLSNHDALAVLTLDESKPVTVQFAIPKNFLSSDLEIFHKLVQGRFLGNTVLDIHYRLRTETPQIVQKYFKITDNVLDLFDYIFSHLFKELIFIEGKVASLAYADLKTYQFLDNPQHVALALRSAISDDEVTKISVAESTEEALENVTVMSHKFLIPYRGTALMHVIGPIEMDYRRMVSLVNVISRVLVMKLTDYYRYLNSNHYEVFLSRNVLKNIERGECLD | not soluble
15 | MGSDKIHHHHHHMTYARKPVADAGIGVGIADDPASLSVLHKPGCAAAIWRRHIPSQAKTWLEGLDPSQLPTGRQMVRPDGVRHAVRDFCKRADTPLGDDLDWLQNDMSMLAEMFAQVMSARVLRLRLDAISTNACSRFHIDAVTARLVCTYRGSGTQYGISTDGRAPRRVFQVATGAPILLRGTLWPEDPPSGVLHRSPPIAGTGETRLVMVLDPIFDPDNGP | not soluble
16 | MAGAMRKMAVYLGLVEDDGYDGRGFDPDDDFEPELDPEPERDHRRHEPAHQSHGAHQSQRDEEVRVVQPPAQREPMPRAASLAAESSRPARIAPVASITQERASLEKSAPVIMPKVVSEREPYRITTLHPRTYNEARTIGEHFREGTPVIMNLTEMDDTDAKRLVDFAAGLVFGLHGSIERVTQKVFLLSPANVDVTAEDKARIAEGGFFNQSLEHHHHHH | not soluble
17 | MAHHHHHHMPCRKIIIDTDCGGDDAIGIMTALADPNTDVIAMTAVWGNVNVNQGMENIGKLLDVFERDIPFYKGAEAPLVSDPETVQWGGFGKDGFGDADFPPSARVLVQSKTHAALAITELLRAAKPDEDAVYQLVCLGPLTNIALAMRLDPEVFHVLGSETEPAITIMGGASEAKGNSNLTSEFNMHCDPEAAYIVFNQRSMRPVRVVSWEVTVDCSMTWTFFDKWIGRQENGKKQQNRFQVFIEKVFQRLETFTRPLPDGTKANTGDAEATQDNTCVIPDAVAVVAALYPESILDRFITYCTVELHGRETRGQTCLDWYGTKQSMAKRGRWCNCELITRVDNARFLEAMNGILEYNV | not soluble
18 | MGSDKIHHHHHHMWSHQSWQDSVYGHQTKATERLAHYAHIFNSVEGNTSFYATPAPQTVLNWHSATPDNFRFTFKLPQRITHQKQLQDCNQDLRDFFHIMAPLIEKTGIWKIQLPAHFGPEQLPVLARFLDHVPQGLTYGVEVRHFAFFAKGDAERTLNRLLIDKKVNRIIMDSRPVFALPPFNETIIDAHKKKPRVPVHPIATANNPVVRFIGQADGTLALLTQLGTTALPKDNDAFFTHWLKQLTLWLNEGREPYLFIHTPDNQTAPELAARLYRKLQLHIAEHIQLADIKLLEKKAEEKSAQMGLDW | not soluble
19 | MWAVIRMRTFRRSTRNAVSRMRKPKPRASAKQRSLERHFGSRQPTKNKFLNAIYWGIRRCQYFLCCYDDEVEDELEDASANPFNTQPPGLDQLVQLTGFNRKWIMFMYRNFKQKCSNGRMTDSQWRILFRSIFPQANDSAFIDRLYAAIVKKKQHPQITFEDLILCLWELSEDGKTSEMGNYHINSSARAQFAFQLMDEEGKGRVDEPGFYKYTRCVFALTAVNKPCTDQIIDASTIGLPASSIYRSTSVDDVLKPMSPLIARFSSKRFKELDTDRDGFITVRDIERELEIQKNEAICLKSLKDFSFEDLKNEEDDDDEDDQDTNPLLSESSSFKKDV | not soluble
20 | YTDKYDKINLQEILENKRLLESYMDCVLGKGKCTPEGKELKDHLQEALETGCEKCTEAQEKGAETSIDYLIKNELEIWKELTAHFDPDGKWRKKYEDRAKAKGIVIPE | soluble
